Experimental data from US20250109187A1 (NOVAVAX, published 2025).

Assays:
[1] = target: T1, Prototype (Wuhan-Hu-1) rS (SARS-CoV-2 (parent virus, Wuhan-Hu-1), UniProt P0DTC2 14-1273)
[2] = target: T1, Prototype (Wuhan-Hu-1) rS; assay: ELISA: rS coated, mAb titrated, anti-mouse HRP

Binder | IC50 [1] [µg/mL] | EC50 [2] [µg/mL]
NVX.324.6 (antibody, V domains shown, also called mAb NVX.324.6) VH: EVQLQQSGPELGKPGTSMKISCKASGYSFTGYTMNWVKQSHGKNLEWIGLINPYNGGTSYNQKFKDKATLTVDKSSSTAYMELLSLTSEDSAVYYCVREHYYYDSGYGGYYAMDYWGQGTSVTVSS VL: QIVLSQSPAILSASPGDKVTMTCRASASVNYMYWYQQKPGSSPKPWIYATSNLASGVPARFSGSGSGTSYSLTISRVEAEDAAIYYCQQWSSNPYTFGGGTKLEIK | > 3 | > 5
NVX.62.12 (antibody, V domains shown, also called mAb NVX.62.12) VH: QVQLQQSGAELVRPGVSVKISCKGSGYTFTDYAMHWVKQSHAKSLEWIGVISTYSGDAYYNQKFKGKATVTVDKSSSTAYMELARLTSEDSAIYFCARNWDDYYAMDYWGQGTSVTVSS VL: QIILSQSPAILSASPGERVTMTCRATSSVSYMHWYRQKPGSSPQPWIYATSNLASGVPARFSGSGSGTSYSLTISRVEAEDAATYYCQQWSGNPWTFGGGTKLEIK | > 3 | > 5
